What was measured:
GST-YoeB fusion protein [1] = molecular target: T1, GST-YoeB fusion protein (Escherichia coli, UniProt P69348 1-84); assay: peptide array on cellulose membrane, low stringency, GST-YoeB probe, anti-GST antibody and chemiluminescence
T1 construct: also called YoeB-GST; GST-YoeB fusion polypeptide; not shown: glutathione S-transferase (GST) fusion partner encoded by the pET42a expression vector (Novagen); vector-encoded linker of pET42a between GST and the EcoRI cloning site; not described
T1 sequence: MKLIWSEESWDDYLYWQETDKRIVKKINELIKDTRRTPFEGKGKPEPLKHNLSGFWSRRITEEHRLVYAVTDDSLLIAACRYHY

GST-YoeB fusion protein [2] = molecular target: T1, GST-YoeB fusion protein; assay: peptide array on cellulose membrane, anti-GST detection
Experimental: (§1) Following incubation, the membrane was washed once in TBS-T then supplemented with 10 ml suspension comprising TBS, mouse anti-GST antibody and horseradish peroxidase conjugated goat anti-mouse antibody in the appropriate titers. Following 1 hour incubation at room temperature the membrane was briefly washed with TBS-T and TBS.

GST-YoeB fusion protein [3] = molecular target: T1, GST-YoeB fusion protein; assay: peptide array of single-replacement analogs
Experimental: as §1

GST-YoeB fusion protein [4] = molecular target: T1, GST-YoeB fusion protein; assay: peptide array on cellulose membrane, single-residue shift, high stringency, GST-YoeB probe, anti-GST antibody and chemiluminescence
Experimental: as §1

GST-YoeB fusion protein [5] = molecular target: T1, GST-YoeB fusion protein; assay: peptide array, low stringency

B1: YefM15-27 peptide (peptide)
peptide: YSEARQNLSATMM
binding result (GST-YoeB fusion protein [1]): binds

B2: YefM11-23 analog with arginine 19 replaced by alanine (peptide)
peptide: RTISYSEAAQNLS
notes: Arrayed on a cellulose membrane
binding result (GST-YoeB fusion protein [2]): no binding

B3: YefM11-23 analog with leucine 22 replaced by glycine (peptide)
peptide: RTISYSEARQNGS
notes: Position 22 counts on whole YefM
binding result (GST-YoeB fusion protein [3]): binds

B4: YefM11-23 analog with leucine 22 replaced by alanine (peptide)
peptide: RTISYSEARQNAS
notes: as for B3
binding result (GST-YoeB fusion protein [3]): binds

B5: YefM11-23 analog with arginine 19 replaced by glycine (peptide)
peptide: RTISYSEAGQNLS
notes: as for B2
binding result (GST-YoeB fusion protein [2]): no binding

B6: YefM13-25 peptide (peptide)
peptide: ISYSEARQNLSAT
notes: It follows from 'YefM11-23-YefM15-27', three tridecamers with a shift of two amino acids; also called second of the three tridecamers YefM11-23-YefM15-27
binding result (GST-YoeB fusion protein [1]): binds

B7: 12-24 (peptide)
peptide: TISYSEARQNLSA
notes: Cell not labelled; also called YefM12-24 peptide
binding result (GST-YoeB fusion protein [4]): binds

B8: YefM75-87 peptide (peptide)
peptide: DSIDSLKSGKGTE
binding result (GST-YoeB fusion protein [5]): binds

B9: 10-22 (peptide)
peptide: MRTISYSEARQNL
notes: Cell not labelled; also called YefM10-22 peptide
binding result (GST-YoeB fusion protein [4]): binds

Reference: US20070298043A1 (RAMOT AT TEL AVIV UNIVERSITY, published 2007)
